Biological target: T1, RIG-I full length (UniProt O95786 O95786:1-925)
T1 sequence: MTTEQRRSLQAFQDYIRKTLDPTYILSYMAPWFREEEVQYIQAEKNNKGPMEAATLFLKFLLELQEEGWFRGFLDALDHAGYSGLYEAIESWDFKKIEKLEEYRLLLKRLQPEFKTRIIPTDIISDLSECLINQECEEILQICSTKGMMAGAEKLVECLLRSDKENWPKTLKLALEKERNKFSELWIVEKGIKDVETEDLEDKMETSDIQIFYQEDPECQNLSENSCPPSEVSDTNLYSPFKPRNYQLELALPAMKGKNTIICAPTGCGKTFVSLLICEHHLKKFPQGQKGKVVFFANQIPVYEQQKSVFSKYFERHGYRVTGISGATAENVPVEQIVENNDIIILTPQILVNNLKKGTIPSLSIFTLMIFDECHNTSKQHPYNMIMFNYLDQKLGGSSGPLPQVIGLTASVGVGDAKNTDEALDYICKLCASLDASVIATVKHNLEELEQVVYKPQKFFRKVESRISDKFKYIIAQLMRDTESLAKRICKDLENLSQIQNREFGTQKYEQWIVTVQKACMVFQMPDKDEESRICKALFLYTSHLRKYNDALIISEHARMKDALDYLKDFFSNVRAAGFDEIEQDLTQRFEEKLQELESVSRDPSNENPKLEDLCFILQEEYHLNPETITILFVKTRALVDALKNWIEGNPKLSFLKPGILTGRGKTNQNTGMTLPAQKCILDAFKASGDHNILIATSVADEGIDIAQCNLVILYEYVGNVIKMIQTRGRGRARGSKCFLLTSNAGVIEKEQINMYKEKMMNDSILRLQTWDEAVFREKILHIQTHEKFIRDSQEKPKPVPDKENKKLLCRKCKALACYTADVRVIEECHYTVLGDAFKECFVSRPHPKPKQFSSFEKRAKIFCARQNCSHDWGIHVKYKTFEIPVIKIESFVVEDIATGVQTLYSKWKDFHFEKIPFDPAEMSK
Assay: EMSA; with ATP; 6 pmol RNA, 0-20 pmol RIG-I; affinity equivalent to poly U/UC
Conditions: stem-loop motif 70-114, complementary 5' and 3' ends

B1: DVG-268 ivtRNA (ssRNA)
RNA: ACCAGACAAGAGUUUAAGAGAUAUGUAUCCUUUUAAAUUUUCUUGUCUUCUUGUAAGUUUUUCUUGCUAUUGUCAUAUGGAUAAGUCCAAGACUAUCUUUAUCUAUGUCCACAAGAUUGGUAACUGGGUCAUUCCCUGACCAGAAGUUUGAAGCAAGACUUCCCGGUACCUGGAAGUCUUGGACUUAUCCAUAUGACAAUAGUAAGAAAAACUUACAAGAAGACAAGAAAAUUUAAUAGGAUACAUAUCUCUUAAACUCUUGUCUGGU
modifications: 5'-triphosphate (T7 transcript)
- binding result: binds
